Patent publication US20250152724A1, “ANTIBODY CONJUGATES SPECIFIC FOR MUCIN-1 AND METHODS OF USE THEREOF” (R.P. Scherer Technologies, LLC, priority 2022, published 2025)

Key:
[1] = analytical size exclusion chromatography (SEC) to determine aggregation; type: physicochemical; conditions: unconjugated antibodies; mobile phase 300 mM NaCl, 25 mM sodium phosphate pH 6.8
Protocol: SEC HPLC: To determine aggregation, samples were analyzed using analytical size exclusion chromatography (SEC; Tosoh #08541) with a mobile phase of 300 mM NaCl, 25 mM sodium phosphate pH 6.8.
Methods. Antibodies (15 mg/mL) bearing one aldehyde tag were conjugated to linker-payloads at 1.1 mM, respectively. Reactions proceeded for 72 h at 37° C. in 20 mM sodium citrate, 50 mM NaCl pH 5.5 (20/50 buffer) containing 0.85-2.5% DMA. After conjugation, free drug was removed using a 30 kD MWCO 0.5 mL Amicon spin concentrator. Samples were added to the spin concentrator, centrifuged at 15,000×g for 7 min, then diluted with 450 μL 20 mM sodium citrate, 50 mM NaCl pH 5.5 and centrifuged again. The process was repeated 10 times. To determine the DAR of the final product, ADCs were examined by analytical chromatography using hydrophobic interaction (HIC) (Tosoh #14947) or PLRP-RP (Agilent PL1912-1802 1000A, 8 μm, 50×2.1 mm) columns. HIC analysis used mobile phase A: 1.5 M ammonium sulfate, 25 mM sodium phosphate pH 7.0, and mobile phase B: 25% isopropanol, 18.75 mM sodium phosphate pH 7.0. […] To determine aggregation, samples were analyzed using analytical size exclusion chromatography (SEC; Tosoh #08541) with a mobile phase of 300 mM NaCl, 25 mM sodium phosphate pH 6.8 with 5% isopropanol.

[2] = molecular target: recombinant 20mer MUC1 glycosylated-biotin (Homo sapiens, UniProt P15941); test: MUC1 ELISA; type: binding; conditions: FIGS. 2A-2C
Chain of recombinant 20mer MUC1 glycosylated-biotin (P15941 138-157): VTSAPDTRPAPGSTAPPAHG
Protocol: (§1) MUC1 ELISA: Antigens were coated directly on a Streptavidin (Pierce, 15500) or Maxisorp (VWR, 62409-024) 96-well plate at 100 ng/well in PBS. Coated plates were incubated at 4° C. overnight. The plates were blocked with casein blocking buffer (Thermo Fisher, 37528) and washed with PBS-Tween-20. Antibodies were serially diluted in PBS, added to the coated wells and incubated for 1 h at room temperature with shaking. To test for stickiness, antibodies were also added to uncoated, blocked wells. Peroxidase (HRP)-conjugated anti-Fc secondary (Jackson Immunoresearch, #109-035-098) was used for detection, followed by a […] substrate (Thermo Fisher, 34028) and H2SO4 quench. Absorbance was read at 450 nm on a Molecular Devices plate reader.
(§2) 20mer MUC1 glycosylated-biotin refers to a peptide comprising the sequence […] (SEQ ID NO:26) with Tn (GalNac) antigen or sialyl Tn (Neu5Acα2-6GalNAc) antigen modifications on some of the S/T residues, where biotin in conjugated to the N-terminus. 60mer MUC1 non-glycosylated-biotin refers to a peptide comprising the sequence […] (SEQ ID NO:27), where biotin in conjugated to the N-terminus. Decoy peptide refers to a peptide comprising the sequence […] (SEQ ID NO:28), with Tn (GalNac) antigen or sialyl Tn (Neu5Acα2-6GalNAc) antigen modifications on some of the S/T residues.

[3] = molecular target: recombinant 60mer MUC1 non-glycosylated-biotin (Homo sapiens, UniProt P15941); test: MUC1 ELISA; type: binding; conditions: FIGS. 2A-2C
Chain of recombinant 60mer MUC1 non-glycosylated-biotin (P15941 138-197): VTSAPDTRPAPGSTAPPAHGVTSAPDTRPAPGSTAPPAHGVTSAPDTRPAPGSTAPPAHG
Protocol: as §1, §2

decoy peptide = test: MUC1 ELISA; type: binding; conditions: FIGS. 2A-2C
Chain of decoy peptide (as listed by the source): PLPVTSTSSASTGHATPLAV
Protocol: as §1, §2

Row | binding to recombinant 20mer MUC1 glycosylated-biotin as assessed by ELISA [2] | binding to recombinant 60mer MUC1 non-glycosylated-biotin as assessed by ELISA [3] | binding to decoy peptide as assessed by ELISA (decoy peptide) | Molecule | monomeric as determined by SEC [1]
1 | bind | not | not | MUC1 H02: anti-MUC1 monoclonal antibody; VH SEQ ID NO:1, VL SEQ ID NO:4 (antibody, V domains shown) VH: EVQLVQSGAEVKKPGATVKISCKVSGYTFTDHTMHWIKQRPGKGLEWMGYFYPRDDSTNYNEKFKGRVTLTADKSTDTAYMELSSLRSEDTAVYYCARGLRYALDYWGQGTLVTVSS VL: EIVLTQSPATLSLSPGERATLSCRASSSVSSSYLYWYQQKPGQAPRLWIIGTSNLASGVPARFSGSGSGTDYTLTISSLEPEDAAVYYCHQYSWSPPTFGQGTKLEIK | more than 98%
2 | bind | not | not | MUC1 gB06: anti-MUC1 monoclonal antibody; VH SEQ ID NO:1, VL SEQ ID NO:2 (antibody, V domains shown) VH: EVQLVQSGAEVKKPGATVKISCKVSGYTFTDHTMHWIKQRPGKGLEWMGYFYPRDDSTNYNEKFKGRVTLTADKSTDTAYMELSSLRSEDTAVYYCARGLRYALDYWGQGTLVTVSS VL: EIVLTQSPATLSLSPGERATLSCRASSSVSSSYLYWYQQKPGQAPRLWIYGTSNLASGVPARFSGSGSGTDYTLTISSLEPEDAAVYYCHQYAWSPPTFGQGTKLEIK | 
3 | bind | not | not | MUC1 G12: anti-MUC1 monoclonal antibody; VH SEQ ID NO:1, VL SEQ ID NO:3 (antibody, V domains shown) VH: EVQLVQSGAEVKKPGATVKISCKVSGYTFTDHTMHWIKQRPGKGLEWMGYFYPRDDSTNYNEKFKGRVTLTADKSTDTAYMELSSLRSEDTAVYYCARGLRYALDYWGQGTLVTVSS VL: EIVLTQSPATLSLSPGERATLSCRASSSVGSSNLYWYQQKPGQAPRLWIYRSTKLASGVPARFSGSGSGTDYTLTISSLEPEDAAVYYCHQYRWSPPTFGQGTKLEIK | 
